According to paper PMC7407982, “Troponin Aptamer on an Atomically Flat Au Nanoplate Platform for Detection of Cardiac Troponin I”:

What was measured:
[1] = target: troponin complex (UniProt P19429+P63316+P45379); conditions: 3'-(CH2)6-SH thiol; SERS sandwich: 300 mM NaCl, 20 mM Tris-HCl, 0.5 mM beta-mercaptoethanol, 20% (w/v) glycerol, 0.05% Tween 20, pH 8.0 (or with 20% human serum), 35 °C, 6 h, then …; cited from earlier work
[2] = target: cardiac troponin I (cTnI) (UniProt P19429 2-210); assay: SERS sandwich on Au nanoplate; AFM; sandwich with reporter N2; detected from 100 aM in buffer, 100 fM in 20% human serum; AFM capture at 10 pM; SERS sandwich: 300 mM NaCl, 20 mM Tris-HCl, 0.5 mM beta-mercaptoethanol, 20% (w/v) glycerol, 0.05% Tween 20, pH 8.0 (or with 20% human serum), 35 °C, 6 h, then

| Molecule | Kd [1] [nM] | binding result [2] |
| --- | --- | --- |
| CGCATGCCAAACGTTGCCTCATAGTTCCCTCCCCGTGTCC [Probe aptamer] | 3.37 | – |
| CGTGCAGTACGCCAACCTTTCTCATGCGCTGCCCCTCTTA [Reporter aptamer] | 3.1 | – |
| CGCATGCCAAACGTTGCCTCATAGTTCCCTCCCCGTGTCC (ssDNA, 3'-(CH2)6-SH thiol) [Probe aptamer] | – | binds |
